From PMC4809751 come the findings set out here.

The assay concerns the target ZbmA, the zorbamycin (ZBM)-binding protein of Streptomyces flavoviridis ATCC21892 (unmodified, as cocrystallised with Cu(II)-ZBM) (Streptomyces flavoviridis ATCC21892). In words: crystal structure.

A word on the stoichiometry N: it is the number of molecules, sites or subunits per partner or assembly. Turning to “ZbmA, the zorbamycin (ZBM)-binding protein of Streptomyces flavoviridis ATCC21892 (unmodified, as cocrystallised with Cu(II)-ZBM) (natural protein)”, the stoichiometry N turned out to be 2.
